Measurements reported in patent publication US20220372105A1 (POSEIDA THERAPEUTICS, published 2022).

Biological target: T1, CD58 (UniProt P19256 29-215, limits assumed)
T1 construct: also called naturally occurring CD58
T1 sequence (looked up): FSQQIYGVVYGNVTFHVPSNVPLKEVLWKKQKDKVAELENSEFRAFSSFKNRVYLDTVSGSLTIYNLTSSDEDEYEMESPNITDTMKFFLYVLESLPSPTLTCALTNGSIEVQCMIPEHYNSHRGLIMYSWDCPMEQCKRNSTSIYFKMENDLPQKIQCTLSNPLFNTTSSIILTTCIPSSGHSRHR
Experiment: not described (screen of a CSR mutant panel)

B1: CD2 extracellular domain with D111H mutation ("CD2 ECD (D111H)") (receptor)
chain: KEITNALETWGALGQDINLDIPSFQMSDDIDDIKWEKTSDKKKIAQFRKEKETFKEKDTYKLFKNGTLKIKHLKTDDQDIYKVSIYHTKGKNVLEKIFDLKIQERVSKPKISWTCINTTLTCEVMNGTDPELNLYQDGKHLKLSQRVITHKWTTSLSAKFKCTAGNKVSKESSVEPVSCPEKGLD
notes: also called CSR CD2z-D111H mutant; mutant CSR
Q: Does B1 bind?
A: Result: no binding
